From patent publication US20230093399A1, “METHODS FOR GENERATING PLURIPOTENT STEM CELL-DERIVED BROWN FAT CELLS” (AgeX Therapeutics, Inc., priority 2013, published 2023)

Test system: cell line E75
Assay: Differentiation of cell line E75 in HyStem, gene expression
Type: cell-based, human
Experimental: HyStem-C (BioTime, Inc. Alameda, Calif.) (BioTime, Alameda, Calif., USA) was reconstituted following the manufacturer's instructions. Briefly, the HyStem component (thiol modified hyaluronan, 10 mg) was dissolved in 1.0 ml degassed deionized water for about 20 minutes to prepare a 1% w/v solution. The Gelin-S component (thiol modified gelatin, 10 mg) was dissolved in 1 ml degassed deionized water to prepare a 1% w/v solution, and PEGDA (PEG diacrylate, 10 mg) was dissolved in 0.5 ml degassed deionized water to prepare a 2% w/v solution. HyStem (1 ml, 1% w/v) was mixed with Gelin-S (1 ml, 1% w/v) immediately before use. Pelleted cells were resuspended in recently prepared HyStem:Gelin-S (1:1 v/v) mix described above. Upon the addition of crosslinker PEGDA, the cell suspension, at a final concentration of 2.0×10^7 cells/ml, was aliquoted at 25 μl aliquot four to five times into each well of 6 well plates (Corning 3516) after partial gelation to form attached beads. Following complete gelation (20 minutes), chondrogenic medium was added to each well (i.e about 4 ml/each well of a 6 well plate). […]
The Gelin-S® component (10 mg of thiol-modified gelatin (BioTime)) is dissolved in 1.0 ml of degassed deionized water to prepare a 1% w/v solution, and polyethylene glycol diacrylate (10 mg of PEGDA) is dissolved in 0.5 ml of degassed deionized water to prepare a 2% w/v solution. […] At the desired time point, hydrogel constructs were either fixed and processed for immunohistochemical analysis or lysed using RLT (Qiagen, CA, USA) with 1% beta-mercaptoethanol for total RNA to analyze transcript expression using quantitative real-time PCR (qRT-PCR) and/or whole-genome microarray.
Total RNA was extracted directly from cells growing in 6-well plates or 10 cm tissue culture dishes using Qiagen RNeasy mini kits according to the manufacturer's instructions. RNA concentrations were measured using a Beckman DU530 or Nanodrop spectrophotometer and RNA quality was determined by denaturing agarose gel electrophoresis or using an Agilent 2100 bioanalyzer. […] The cRNA was hybridized to Illumina BeadChips, processed, and read using a BeadStation array reader according to the manufacturer's instructions (Illumina, San Diego, Calif., USA).

B1: BMP4: Bone Morphogenetic Protein 4, TGF-beta superfamily member (protein, UniProt P12644 293-408, looked up)
Bone morphogenetic protein 4: SPKHHSQRARKKNKNCRRHSLYVDFSDVGWNDWIVAPPGYQAFYCHGDCPFPLADHLNSTNHAIVQTLVNSVNSSIPKACCVPTELSAISMLYLDEYDKVVLKNYQEMVVEGCGCR
ameloblastin (AMBN) expression (E75, 21 days HyStem, BMP4 and TGFβ3): expressed the additional marker normally associated with enamel called ameloblastin | markers normally associated with enamel, enamelin (ENAM) and amelogenin (AMELX) (E75, HyStem in the presence of BMP4 and TGFβ3): expressed the markers normally associated with enamel | adipocyte markers FABP4 and CD36 and candidate BAT cell progenitor markers such as C19orf80 (E75 passage 11, 21 days in HyStem with 10 ng/mL BMP4): relatively high levels | markers of endochondral ossification including COL2A1, ALPL, IBSP, and osteopontin (SPP1) (E75 passage 11, 21 days in HyStem with 10 ng/mL TGFβ3 together with BMP4 (10 ng/mL) or BMP2 (50 ng/mL)): relatively high levels
